Here are results for 1 molecule from paper PMC4097036 (Molecular immunology, 2014).

Assay [1] addresses anti-Bla g 1 scFv (chicken). The experiment in a line: crystal structure.
Assay [2] deals with rBla g 1-EC V83A, with GST tag (Blattella germanica, UniProt Q9UAM5, point mutant). In words: ELISA. On the technique in general: ELISA stands for enzyme-linked immunosorbent assay.
Assay [3] has as its target rBla g 1-EC D76A, with GST tag (Blattella germanica, UniProt Q9UAM5, point mutant). The experiment in a line: ELISA.
Assay [4] deals with rBla g 1-EC D107A, with GST tag (Blattella germanica, UniProt Q9UAM5, point mutant). In words: ELISA.
Assay [5] addresses rBla g 1-EC E161A, with GST tag (Blattella germanica, Bla g 1.0101, UniProt Q9UAM5, point mutant). The experiment in a line: ELISA.
The target of assay [6] is rBla g 1-EC H113A, with GST tag (Blattella germanica, UniProt Q9UAM5, point mutant). In words: ELISA.
The target of assay [7] is rBla g 1-EC N96A, with GST tag (Blattella germanica, UniProt Q9UAM5, point mutant). In words: ELISA.
In assay [8] the target is rBla g 1-EC D50A, with GST tag (Blattella germanica, UniProt Q9UAM5, point mutant). The experiment in a line: ELISA.
Assay [9] deals with rBla g 1-EC Q183A, with GST tag (Blattella germanica, Bla g 1.0101, UniProt Q9UAM5, point mutant). In words: ELISA.
Assay [10] addresses rBla g 1-EC E200A, with GST tag (Blattella germanica, UniProt Q9UAM5, point mutant). In words: ELISA.
The target in assay [11] is rBla g 1-EC Q41A, with GST tag (Blattella germanica, UniProt Q9UAM5, point mutant). The experiment in a line: ELISA.
Assay [12] deals with rBla g 1-EC N93A, with GST tag (Blattella germanica, UniProt Q9UAM5, point mutant). In words: ELISA.
Assay [13] deals with rBla g 1-EC N104A, with GST tag (Blattella germanica, UniProt Q9UAM5, point mutant). The experiment in a line: ELISA.
Assay [14] deals with rBla g 1-EC L60A, with GST tag (Blattella germanica, UniProt Q9UAM5, point mutant). In words: ELISA.
Assay [15] concerns the target rBla g 1-EC E79A, with GST tag (Blattella germanica, UniProt Q9UAM5, point mutant). In words: ELISA.
In assay [16] the target is rBla g 1-EC I53A, with GST tag (Blattella germanica, UniProt Q9UAM5, point mutant). The experiment in a line: ELISA.
Assay [17] deals with rBla g 1-EC N193A, with GST tag (Blattella germanica, Bla g 1.0101, UniProt Q9UAM5, point mutant). The experiment in a line: ELISA.
The target of assay [18] is rBla g 1-EC T80A, with GST tag (Blattella germanica, UniProt Q9UAM5, point mutant). The experiment in a line: ELISA.
Assay [19] deals with rBla g 1-EC (combined with the scFv for crystallography) (Blattella germanica, UniProt Q9UAM5). The experiment in a line: SEC. In general terms: In gel filtration, larger molecules generally elute earlier.

B1: anti-Bla g 1 scFv (scFv, V domains shown)
VH: AVTLDESGGGLQTPGGALSLVCKASGFTFSVYDMMWVRQAPSKGLEWVAGIGITGSTYYASAVKGRATISRDNGQSTVRLQLNNLRAEDTGTYYCARGGAYSINKLDTWGQGTEVIVSS
VL: QAALTQPSSVSANPGETVKITCSGGGSSSNYGWFQQKSPGSAPVTVIYNNNNRPSDIPSRFSGSKSGSTATLTITGVQADDEAVYFCGGRDSTYAGMFGAGTTLTVL
In general, stoichiometry N refers to the number of molecules, sites or subunits per partner or assembly. With B1, the stoichiometry N in [1] is 2; in assay [19], 1 Bla g 1 per scFv (printed as 2:2). For the same molecule, the “ΔΔG against wild type (RT ln(IC50 WT/IC50 mutant))” value in assay [2] was -0.33 kCal/mol; in assay [3] it was -1.1 kCal/mol; in assay [4], 0.13 kCal/mol; in assay [5], 0.33 kCal/mol; in [6], 0.09 kCal/mol; in [7] it was 0.33 kCal/mol. The “ΔΔG against wild type (RT ln(IC50 WT/IC50 mutant))” value is 0.06 kCal/mol in [8]; 0.33 kCal/mol in assay [9]; -0.02 kCal/mol in assay [10]; -0.05 kCal/mol in [11]; 0.31 kCal/mol in assay [12]; 0.4 kCal/mol in assay [13]. For the same molecule, the “ΔΔG against wild type (RT ln(IC50 WT/IC50 mutant))” value in [14] is 0 kCal/mol; in [15] it was -1.2 kCal/mol; in assay [16], 0.09 kCal/mol; in [17] it was -2.1 kCal/mol; in [18], -1.7 kCal/mol.
